Reference: US20030119169A1

Target: truncated Mch3α (amino acids 199-303), p12 subunit (human) (UniProt P55210)
Assay: cell-based or functional assay

Chain of truncated Mch3α (amino acids 199-303), p12 subunit (human) (P55210 199-303): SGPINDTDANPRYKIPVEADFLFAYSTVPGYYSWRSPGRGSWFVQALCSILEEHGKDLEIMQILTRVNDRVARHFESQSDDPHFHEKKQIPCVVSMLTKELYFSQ

## CPP32-p20 subunit (from UniProt P42574 29-175) (enzyme)
  apoptotic Sf9 cells on coexpression (percentage of cells): > 50%
